Test results as given in publication PMC7899375 (PLoS ONE, 2021).

Molecular target: WI/05 HA1 monomer (Influenza A virus …, UniProt Q0PED2, strain)
Assay: ELISA
Conditions: both partners purified

B1: mAb #1664 (antibody, V domains shown)
VH: EVQVMQSGAEARMTGATVKISCKASGYTFSDYFLHWVKQAPGKGLEWMGLVDVDNGEVRYAEKFQGRVTITADTSTETAYLEMTTVTSGDTAVYYCASTTPRGGNPSVYNYFFVDVWGKGTTVTVSS
VL: QPVLTQSSSASASLGSSVKLTCTLSSGHDNYIIAWHQQQPGKAPRYLMQVGAGGTYNKGSGVPHRFSGSSSGADRYLTISNLQSDDEADYYCETWDSKTVFGGGTTLTVL
notes: also called private mAb; H3-specific mAb; source: HEK 293F cells, transfected (GenScript), conditioned media; purified
Does B1 bind?
Result: no binding (tested: 20 μg/mL)
